Measured values from the supplement of paper PMC7877785.
± gives the uncertainty stated by the source.

Test: self-splicing fitness, log relative to wild type (ln ratio); higher = more splicing; Tetrahymena group I intron in knt gene, E. coli kanamycin selection, DiMSum; sequences stand for … in CUCUCU…GGAGGGAAAAGUUAUCAGGCAUGCACCUGGUAGCUAGUCUUUAAACCAAUAGAUUGCAUCGGUUUAAAAGGCAAGACCGUCAAAUUGCGGGAAAGGGGUCAACAGCCGUUCAGUACCAAGUCUCAGGGGAAACUUUGAGAUGGCCUUGCAAAGGGUAUGGUAAUAAGCUGACGGACAUGGUCCUAACCACGCAGCCAAGUCCUAAGUCAACAGAUCUUCUGUUGAUAUGGAUGCAGUUCACAGACUAAAUGUCGGUCGGGGAAGAUGUAUUCUUCUCAUAAGAUAUAGUCGGACCUCUCCUUAAUGGGAGCUAGCGGAUGAAGUGAUGCAACACUGGAGCCGCUGGGAACUAAUUUGUAUGCGAAAGUAUAUUGAUUAGUUUUGGAGUACUCGUGGUCG
How it was run: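 Colonies from six replicate transformations of E. coli BL21(DE3) were pooled and amplicon-sequenced on an Illumina HiSeq 2500. The library placed an intron with all eight P1ex-region nucleotides randomised inside the knt kanamycin-resistance gene on pET-22b(+), and cells grew overnight at 37°C or 30°C on LB agar with or without 25 μg/mL kanamycin (plus 100 μg/mL carbenicillin, 50 μM IPTG, 0.2% rhamnose). Fitness is the DiMSum error-weighted combination of wild-type-normalised replicate fold changes, kanamycin versus none.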

Sequence	self-splicing fitness (ln) (30 °C)	self-splicing fitness (ln) (37 °C)
AAAAAGCAAUAUUACGAACC	-1.53 ± 0.12	-0.312 ± 0.18
AAAAAGCAAUAUUACGACCC	0.000517 ± 0.17	0.616 ± 0.24
AAAAAGCAAUAUUACGAGCA	-0.699 ± 0.076	-0.722 ± 0.091
AAAAAGCAAUAUUACGAGCC	-2.31 ± 0.2	-1.28 ± 0.27
AAAAAGCAAUAUUACGAUUA	-0.462 ± 0.067	0.23 ± 0.081
AAAAAGCAAUAUUACGCAAA	-1.15 ± 0.13	-1.43 ± 0.17
AAAAAGCAAUAUUACGCACC	-1.16 ± 0.14	-0.602 ± 0.16
AAAAAGCAAUAUUACGCAGC	-1.99 ± 0.13	-2.19 ± 0.19
AAAAAGCAAUAUUACGCCGG	-1.62 ± 0.11	0.057 ± 0.12
AAAAAGCAAUAUUACGCCUC		-1.18 ± 0.22
AAAAAGCAAUAUUACGCCUU	-0.374 ± 0.071	0.151 ± 0.1
AAAAAGCAAUAUUACGCGCA	-0.39 ± 0.082	0.127 ± 0.11
AAAAAGCAAUAUUACGGAAA	-2.24 ± 0.18	-1.58 ± 0.19
AAAAAGCAAUAUUACGGAGC	-3.4 ± 0.2	-2.1 ± 0.18
AAAAAGCAAUAUUACGGAUC	-0.895 ± 0.068	-0.418 ± 0.092
AAAAAGCAAUAUUACGGCAA	-0.286 ± 0.092	0.328 ± 0.12
AAAAAGCAAUAUUACGGCGC	-0.402 ± 0.093	0.559 ± 0.13
AAAAAGCAAUAUUACGGGCC	-1.8 ± 0.28	-1.17 ± 0.22
AAAAAGCAAUAUUACGGUCA	-0.0389 ± 0.065	0.206 ± 0.082
AAAAAGCAAUAUUACGGUGA	-0.824 ± 0.058	-0.362 ± 0.064
AAAAAGCAAUAUUACGUACC	-0.981 ± 0.13	-0.0947 ± 0.14
AAAAAGCAAUAUUACGUCGA	-1.05 ± 0.067	-0.415 ± 0.082
AAAAAGCAAUAUUACGUCGU	-1.5 ± 0.061	-0.928 ± 0.078
AAAAAGCAAUAUUACGUUAA	-2.66 ± 0.12	-1.05 ± 0.093
AAACAGCAAUAUUACGACGG	-3.02 ± 0.092	-1.13 ± 0.087
AAACAGCAAUAUUACGAGCA	-1.76 ± 0.091	-1.09 ± 0.082

Sequence	self-splicing fitness (ln) (30 °C)	self-splicing fitness (ln) (37 °C)
AAACAGCAAUAUUACGAGCG	-1.93 ± 0.079	-0.668 ± 0.095
AAACAGCAAUAUUACGCAGG	-2.41 ± 0.15	-2.33 ± 0.15
AAACAGCAAUAUUACGCAUG	-2.12 ± 0.077	-1.58 ± 0.089
AAACAGCAAUAUUACGCCAG	-4.93 ± 0.39	-2.11 ± 0.22
AAACAGCAAUAUUACGCCCA	-1.29 ± 0.15	-0.816 ± 0.15
AAACAGCAAUAUUACGCCCU	-0.534 ± 0.11	0.201 ± 0.16
AAACAGCAAUAUUACGCGCG	-1.2 ± 0.067	-0.673 ± 0.081
AAACAGCAAUAUUACGCUCC	-1.21 ± 0.14	-0.165 ± 0.13
AAACAGCAAUAUUACGCUCG	-1.11 ± 0.083	-0.7 ± 0.11
AAACAGCAAUAUUACGCUGC	-4.51 ± 0.19	-1.81 ± 0.13
AAACAGCAAUAUUACGCUUG	-1.9 ± 0.096	-0.605 ± 0.098
AAACAGCAAUAUUACGCUUU	-3.11 ± 0.095	-1.33 ± 0.083
AAACAGCAAUAUUACGGAGA	-2.87 ± 0.15	-2.57 ± 0.15
AAACAGCAAUAUUACGGUAU	-2.53 ± 0.074	-1.58 ± 0.088
AAACAGCAAUAUUACGGUCG	-1.07 ± 0.059	-0.526 ± 0.082
AAACAGCAAUAUUACGGUCU	-0.15 ± 0.059	-0.161 ± 0.064
AAACAGCAAUAUUACGUAAA	-2.37 ± 0.068	-1.13 ± 0.074
AAACAGCAAUAUUACGUAAC	-4.39 ± 0.24	-1.97 ± 0.14
AAACAGCAAUAUUACGUAUA	-3 ± 0.14	-1.27 ± 0.12
AAACAGCAAUAUUACGUAUU	-2.17 ± 0.089	-1.53 ± 0.097
AAACAGCAAUAUUACGUGAA	-1.92 ± 0.073	-0.646 ± 0.072
AAAGAGCAAUAUUACGAAGG	-3.52 ± 0.33	-2.64 ± 0.41
AAAGAGCAAUAUUACGACCC	-2.42 ± 0.45	
AAAGAGCAAUAUUACGACGU	-1.63 ± 0.084	-0.555 ± 0.089
AAAGAGCAAUAUUACGAGUC	-3.41 ± 0.38	-2.63 ± 0.45
AAAGAGCAAUAUUACGCACG	-2.69 ± 0.23	-2.22 ± 0.26

Sequence	self-splicing fitness (ln) (30 °C)	self-splicing fitness (ln) (37 °C)
AAAGAGCAAUAUUACGCCAA	-1.26 ± 0.21	
AAAGAGCAAUAUUACGCCCA	-2.88 ± 0.32	-2.02 ± 0.28
AAAGAGCAAUAUUACGCUUA	-2.74 ± 0.31	-3.02 ± 0.23
AAAGAGCAAUAUUACGGACU	-1.36 ± 0.12	-1.59 ± 0.16
AAAGAGCAAUAUUACGGCAC	-2.72 ± 0.19	-2.01 ± 0.21
AAAGAGCAAUAUUACGGGAA	-2.67 ± 0.32	-2.16 ± 0.28
AAAGAGCAAUAUUACGGGGU	-2.63 ± 0.21	-2.18 ± 0.24
AAAGAGCAAUAUUACGGUAC	-4.14 ± 0.24	-2.57 ± 0.2
AAAGAGCAAUAUUACGGUUA	-2.49 ± 0.21	-2.06 ± 0.18
AAAGAGCAAUAUUACGGUUC		-2.82 ± 0.36
AAAGAGCAAUAUUACGUACU	-1.21 ± 0.14	-0.952 ± 0.15
AAAGAGCAAUAUUACGUCAU	-2.38 ± 0.37	-2.45 ± 0.35
AAAGAGCAAUAUUACGUCCC	-2.1 ± 0.28	-1.07 ± 0.35
AAAGAGCAAUAUUACGUGAA	-3.27 ± 0.14	-2.44 ± 0.16
AAAGAGCAAUAUUACGUGGC	-2.86 ± 0.23	
AAAGAGCAAUAUUACGUUCC	-3.94 ± 0.31	-2.49 ± 0.29
AAAUAGCAAUAUUACGAAAG	-3.48 ± 0.18	-1.6 ± 0.14
AAAUAGCAAUAUUACGAACC	-1.91 ± 0.33	1.21 ± 0.28
AAAUAGCAAUAUUACGAACU	1.11 ± 0.17	-0.182 ± 0.16
AAAUAGCAAUAUUACGAAGC	-3.18 ± 0.47	
AAAUAGCAAUAUUACGAUCU	-0.0304 ± 0.11	0.867 ± 0.13
AAAUAGCAAUAUUACGAUGC	-2.26 ± 0.31	-1.65 ± 0.34
AAAUAGCAAUAUUACGCACC	-1.34 ± 0.21	-0.223 ± 0.23
AAAUAGCAAUAUUACGCACU	0.478 ± 0.12	-0.381 ± 0.13
AAAUAGCAAUAUUACGCCAA	-2.54 ± 0.18	-1.86 ± 0.13
